The results in this text go back to publication PMC3005890.

This experiment concerns the target teichuronic acid synthetase (TUAS) subunit B, 52.5 kDa (Micrococcus luteus (endogenous in ATCC 4698)). Kind of experiment: native gel or EMSA; endogenous TUAS co-purified from detergent-solubilised membranes; the active ~440 kDa band on a 3-12% native gradient polyacrylamide gel is separated by 9.5% SDS-PAGE into the 54 kDa and 52.5 kDa subunits; the complex carries lipids and pigments.

“teichuronic acid synthetase (TUAS) subunit A, 54 kDa (natural protein)” showed a stoichiometry N of 8.
